According to patent US9717715B2, “Method of combination therapy using an anti-C-Met antibody” (SAMSUNG ELECTRONICS CO., LTD., dated 2017):

How the values were obtained:
[1] = molecular target: c-Met on human cancer cells (human, UniProt P08581); test: cell-based or functional assay
human c-Met protein [2] = molecular target: T1, human c-Met protein (human, UniProt P08581); test: SPR (Biacore), antibody immobilised on CM5 chip, human c-Met protein injected at 0.39-100 nM
human c-Met protein [3] = molecular target: T1, human c-Met protein; test: SPR (Biacore), by the method of Example 8

Row | Akt phosphorylation (%) in Caki-1 cells, 5 ug/ml, 30 min [1] | Kd (human c-Met protein [2]) | koff (human c-Met protein [2]) | kon (human c-Met protein [2]) | Kd (human c-Met protein [3]) | Binder | relative cell viability (%) of MKN45 cells, 72 h [1]
1 | ≤ 18% |  |  |  |  | huAbF46-H4-A1 (U6-HC7) (antibody) heavy: not shown light: DIQMTQSPSSLSASVGDRVTITCKSSQSLLASGNQNNYLAWYQQKPGKAPKMLIIWASTRVSGVPSRFSGSGSGTDFTLTISSLQPEDFATYYCQQSYSRPYTFGQGTKVEIKRTVAAPSVFIFPPSDEQLKSGTASVVCLLNNFYPREAKVQWKVDNALQSGNSQESVTEQDSKDSTYSLSSTLTLSKADYEKHKVYACEVTHQGLSSPVTKSFNRGEC | ~60%
2 | ≤ 18% |  |  |  |  | huAbF46-H4-A1 (IgG2 hinge) (antibody) heavy: not shown light: DIQMTQSPSSLSASVGDRVTITCKSSQSLLASGNQNNYLAWYQQKPGKAPKMLIIWASTRVSGVPSRFSGSGSGTDFTLTISSLQPEDFATYYCQQSYSRPYTFGQGTKVEIKRTVAAPSVFIFPPSDEQLKSGTASVVCLLNNFYPREAKVQWKVDNALQSGNSQESVTEQDSKDSTYSLSSTLTLSKADYEKHKVYACEVTHQGLSSPVTKSFNRGEC | ~60%
3 | ≤ 18% |  |  |  |  | huAbF46-H4-A1 (IgG2 Fc) (antibody) heavy: EVQLVESGGGLVQPGGSLRLSCAASGFTFTDYYMSWVRQAPGKGLEWLGFIRNKANGYTTEYSASVKGRFTISRDNSKNTLYLQMNSLRAEDTAVYYCARDNWFAYWGQGTLVTVSSASTKGPSVFPLAPCSRSTSESTAALGCLVKDYFPEPVTVSWNSGALTSGVHTFPAVLQSSGLYSLSSVVTVPSSNFGTQTYTCNVDHKPSNTKVDKTVERKCCVECPPCPAPPVAGPSVFLFPPKPKDTLMISRTPEVTCVVVDVSHEDPEVQFNWYVDGVEVHNAKTKPREEQFNSTFRVVSVLTVVHQDWLNGKEYKCKVSNKGLPAPIEKTISKTKGQPREPQVYTLPPSREEMTKNQVSLTCLVKGFYPSDIAVEWESNGQPENNYKTTPPMLDSDGSFFLYSKLTVDKSRWQQGNVFSCSVMHEALHNHYTQKSLSLSPGK light: DIQMTQSPSSLSASVGDRVTITCKSSQSLLASGNQNNYLAWYQQKPGKAPKMLIIWASTRVSGVPSRFSGSGSGTDFTLTISSLQPEDFATYYCQQSYSRPYTFGQGTKVEIKRTVAAPSVFIFPPSDEQLKSGTASVVCLLNNFYPREAKVQWKVDNALQSGNSQESVTEQDSKDSTYSLSSTLTLSKADYEKHKVYACEVTHQGLSSPVTKSFNRGEC | ~60%
4 | 29.1% | 2.19 nM | 0.000723 s⁻¹ | 329000 M⁻¹ s⁻¹ |  | humanized antibody huAbF46 (H4-heavy chain and H4-light chain) (antibody, V domains shown) VH: EVQLVESGGGLVQPGGSLRLSCAASGFTFTDYYMSWVRQAPGKGLEWLGFIRNKANGYTTEYSASVKGRFTISRDNSKNTLYLQMNSLRAEDTAVYYCARDNWFAYWGQGTLVTVSS VL: DIQMTQSPSSLSASVGDRVTITCKSSQSLLASGNQNNYLAWHQQKPGKAPKMLIIWASTRVSGVPSRFSGSGSGTDFTLTISSLQPEDFATYYCQQSYSAPLTFGQGTKVEIKR | 77%
5 | 15.3% | 0.06 nM | 4.53e-05 s⁻¹ | 739000 M⁻¹ s⁻¹ |  | huAbF46-H4-A1 (antibody, V domains shown) VH: EVQLVESGGGLVQPGGSLRLSCAASGFTFTDYYMSWVRQAPGKGLEWLGFIRNKANGYTTEYSASVKGRFTISRDNSKNTLYLQMNSLRAEDTAVYYCARDNWFAYWGQGTLVTVSS VL: DIQMTQSPSSLSASVGDRVTITCKSSQSLLASGNQNNYLAWHQQKPGKAPKMLIIWASTRVSGVPSRFSGSGSGTDFTLTISSLQPEDFATYYCQQSYSRPYTFGQGTKVEIKR | 74%
6 |  |  |  |  | < 0.01 nM | L3-11Y (antibody, V domains shown) VH: EVQLVESGGGLVQPGGSLRLSCAASGFTFTDYYMSWVRQAPGKGLEWLGFIRNKANGYTTEYSASVKGRFTISRDNSKNTLYLQMNSLRAEDTAVYYCARDNWFAYWGQGTLVTVSS VL: DIQMTQSPSSLSASVGDRVTITCKSSQSLLAWGNQNNYLAWYQQKPGKAPKMLIIWASTRVSGVPSRFSGSGSGTDFTLTISSLQPEDFATYYCQQSYSRPYTFGQGTKVEIKR | 
